Assay results as given in paper PMC12056172.

Target: FLAG-tagged RHOA (UniProt P61586)
Experiment: co-IP

UniProt P61586, sequence (P61586 whole entry): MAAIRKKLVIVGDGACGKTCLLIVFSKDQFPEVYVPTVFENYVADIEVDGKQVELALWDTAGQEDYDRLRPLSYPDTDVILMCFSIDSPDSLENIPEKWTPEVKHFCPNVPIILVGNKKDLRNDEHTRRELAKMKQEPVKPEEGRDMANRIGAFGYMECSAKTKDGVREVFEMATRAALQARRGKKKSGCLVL

With “DAAM1-ΔDAD without microexon (-MIC) (domain or fragment)” the decrease of the co-IP signal against the +MIC construct was 40%.
